Reference: US20110236390A1 (Janssen / Centocor, published 2011)
Positions count from the first letter of the chain named.

T1: rhIL-17A/F heterodimer (R&D Systems) (human, UniProt Q16552 20-155; Q96PD4 31-163, limits assumed)
T1 sequence (looked up) 1: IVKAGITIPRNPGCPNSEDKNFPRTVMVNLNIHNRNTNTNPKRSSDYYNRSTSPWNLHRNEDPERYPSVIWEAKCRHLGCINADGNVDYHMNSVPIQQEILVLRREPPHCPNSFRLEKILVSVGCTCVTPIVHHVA
T1 sequence (looked up) 2: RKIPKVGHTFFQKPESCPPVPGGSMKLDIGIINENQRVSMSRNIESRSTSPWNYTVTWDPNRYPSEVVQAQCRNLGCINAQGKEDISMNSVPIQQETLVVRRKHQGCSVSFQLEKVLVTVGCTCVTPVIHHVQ

T2: cynomolgus IL-17A (cynomolgus, UniProt Q16552 24-155 (human entry), limits assumed)
T2 chain: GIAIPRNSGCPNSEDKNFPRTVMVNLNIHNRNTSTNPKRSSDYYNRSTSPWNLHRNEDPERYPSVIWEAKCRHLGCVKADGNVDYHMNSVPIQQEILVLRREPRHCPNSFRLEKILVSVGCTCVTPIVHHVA

T3: human IL-17A (human, UniProt Q16552 24-155)
T3 sequence: T2 chain with A3T, S8P, S34N, V77I, K78N, R104P

B1: mAb6785 (antibody, human IgG1, lambda, V domains shown)
VH: QVQLLESGGGLVQPGGSLRLSCAASGFTFSSYAMSWVRQAPGKGLEWVSTISLTSGFTYYADSVKGRFTISRDNSKNTLYLQMNSLRAEDTAVYYCARQLTLDVWGQGTLVTVSS
VL: QSVLTQPPSVSVAPGQTARISCSGDNLGDKYANWYQQKPGQAPVLVIYDDIDRPSGIPERFSGSNSGNTATLTISGTQAEDEADYYCGSYDFFLGMIVFGGGTKLTVLG
notes: Framework-engineered mAb; also called engineered form of MOR8302
B2: mAb7146 (antibody, human IgG1, lambda, V domains shown)
VH: B1 VH with L53M
VL: B1 VL with M96L
notes: Framework-engineered mAb; also called engineered form of MOR8160
B3: mAb1926 (antibody, human IgG1, lambda, V domains shown)
VH: B1 VH with L53M, T101M
VL: B1 VL
notes: Framework-engineered mAb; also called mAbtr1926; engineered form of MOR7700
B4: mAb4538 (antibody, human IgG1, lambda, V domains shown)
VH: QVQLQQSGPGLVKPSQTLSLTCAISGDSVSSSSAAWGWIRQSPSRGLEWLGRISYRSKWYNDYAVSVKSRITINPDTSKNQFSLQLNSVTPEDTAVYYCAREVDSMYYSYFDIWGQGTLVTVSS
VL: EIVLTQSPATLSLSPGERATLSCRASQNVWAFYLAWYQQKPGQAPRLLIYGASNRATGIPARFSGSGSGTDFTLTISSLEPEDFAVYYCQQYRSTLSLTFGQGTKVEIKG
notes: Framework-engineered mAb; also called engineered form of MOR7706
B5: mAb3584 (antibody, human IgG1, lambda, V domains shown)
VH: B4 VH with M106I
VL: B4 VL
notes: Framework-engineered mAb; also called engineered form of MOR8299
B6: mAb4168 (antibody, human IgG1, lambda, V domains shown)
VH: B4 VH with M106T
VL: B4 VL with Q90T, R93Y, T95S, L96P
notes: Framework-engineered mAb; also called engineered form of MOR8103
B7: mAb732 (antibody, human IgG1, lambda, V domains shown)
VH: B4 VH
VL: B4 VL with Q90T, R93Y, T95S, L96P
notes: Framework-engineered mAb; also called engineered form of MOR7775
B8: Fab6468, a recombinant His6-tagged Fab of mAb6785 (Fab, V domains shown)
VH: B1 VH
VL: B1 VL
B9: mAb5548 (antibody, human IgG1, lambda, V domains shown)
VH: B1 VH
VL: B1 VL with M96L
notes: Framework-engineered mAb

target: T1, rhIL-17A/F heterodimer (R&D Systems); assay: cell-based or functional assay

Row | IL-17A/F heterodimer-induced IL-6 production by NHDF, EC50 [nM] | Binder
1 | 2 | B1

Target: T2, cynomolgus IL-17A
Assay: cell-based or functional assay

Row | IL-6 production (NHDF), IC50 [nM] | IL-8 production (NHDF), IC50 [nM] | Binder
2 | 0.139 | 0.14 | B2
3 | 0.193 | 0.563 | B1
4 | 0.067 | – | B3
5 | 0.847 | 1.75 | B4
6 | 0.823 | 1.25 | B5
7 | 2.17 | 3.3 | B6
8 | 2.02 | 12.5 | B7

Target: T2, cynomolgus IL-17A
Assay: SPR Biacore 3000, Fab captured, IL-17 in solution
Experimental: (§1) Affinity measurements using Surface Plasmon Resonance (SPR) were performed using a Biacore 3000 optical biosensor (Biacore).

Row | Kd [nM] | Binder
9 | 0.205 | B8

Target: T2, cynomolgus IL-17A
Assay: SPR Biacore 3000, antibody captured, IL-17 in solution
Experimental: as §1

Row | Kd [nM] | Stoichiometry [dimers per anti-IL-17] | Binder
10 | 0.05 | 2 | B2
11 | 0.225 | 1.9 | B9
12 | 0.148 | 2.2 | B1
13 | 0.018 | 2.3 | B3

Target: T2, cynomolgus IL-17A
Assay: competition ELISA: mAb against biotinylated cyno IL-17A binding to coated IL-17RA-Fc
Experimental: Clear maxisorp plates were coated with 100 μl/well of 2.5 μg/ml human IL-17RA-Fc (R&D Systems, Minneapolis, Minn.) in 0.1 M sodium carbonate-bicarbonate buffer, pH 9.4 and incubated overnight at 4° C. […] The signal was detected with 100 μl of 1:10,000 dilution of 1 mg/ml SA-HRP (Jackson Immunoresearch, West Grove, Pa.) for 20 minutes at room temperature (RT) followed by 100 μl/well of OPD substrate (Sigma-Aldrich Corp., St. Louis, Mo.).

Row | IC50 [nM] | Binder
14 | 0.067 | B2
15 | 0.076 | B1
16 | 0.053 | B3
17 | 0.636 | B4
18 | 0.489 | B5
19 | 0.764 | B6
20 | 0.463 | B7

target: T3, human IL-17A; assay: binding ELISA, IL-17A protein coated on micro-titer plate, serial dilutions of labeled mAb1926, 37 C 2 h
Text: Human, mouse and rat IL-17A proteins were coated on the micro-titer plates.

Row | binding result | Binder
21 | binds | B3
